Test results from paper PMC12035560, “Structures of Mycobacterium tuberculosis isoprenyl diphosphate synthase Rv2173 in substrate-bound forms” (Acta Crystallographica Section F: Structural Biology …, 2025).

Biological target: the molecule itself
Test: crystal structure

B1: Mycobacterium tuberculosis isoprenyl diphosphate synthase Rv2173 (enzyme)
chain: LESTSLYKKAGSAAALFRFKKEPFTMAGAITDQLRRYLHGRRRAAAHMGSDYDGLIADLEDFVLGGGKRLRPLFAYWGWHAVASREPDPDVLLLFSALELLHAWALVHDDLIDRSATRRGRPTAQLRYAALHRDRDWRGSPDQFGMSAAILLGDLAQVWADDIVSKVCQSALAPDAQRRVHRVWADIRNEVLGGQYLDIVAEASAAESIESAMNVATLKTACYTVSRPLQLGTAAAADRSDVAAIFEHFGADLGVAFQLRDDVLGVFGDPAVTGKPSGDDLKSGKRTVLVAEAVELADRSDPLAAKLLRTSIGTRLTDAQVRELRTVIEAVGARAAAESRIAALTQRALATLASAPINATAKAGLSELAMMAANRSA
notes: also called tagged Rv2173; not shown: His6, N-terminal, kept
- stoichiometry N: 2
